Measurements from article doi:10.1101/2024.10.14.618141 (bioRxiv, 2024).

B1: Flag-GST-RPB1-CTD(1586-1971) (domain or fragment)
chain: GGAMSPSYSPTSPAYEPRSPGGYTPQSPSYSPTSPSYSPTSPSYSPTSPNYSPTSPSYSPTSPSYSPTSPSYSPTSPSYSPTSPSYSPTSPSYSPTSPSYSPTSPSYSPTSPSYSPTSPSYSPTSPSYSPTSPSYSPTSPSYSPTSPSYSPTSPSYSPTSPNYSPTSPNYTPTSPSYSPTSPSYSPTSPNYTPTSPNYSPTSPSYSPTSPSYSPTSPSYSPSSPRYTPQSPTYTPSSPSYSPSSPSYSPTSPKYTPTSPSYSPSSPEYTPTSPKYSPTSPKYSPTSPKYSPTSPTYSPTTPKYSPTSPTYSPTSPVYTPTSPKYSPTSPTYSPTSPKYSPTSPTYSPTSPKGSTYSPTSPGYSPTSPTYSLTSPAISPDDSDEEN
B2: CDK12(KiD)/Cyclin K complex (complex)
chain 1: not shown
chain 2: MKENKENSSPSVTSANLDHTKPCWYWDKKDLAHTPSQLEGLDPATEARYRREGARFIFDVGTRLGLHYDTLATGIIYFHRFYMFHSFKQFPRYVTGACCLFLAGKVEETPKKCKDIIKTARSLLNDVQFGQFGDDPKEEVMVLERILLQTIKFDLQVEHPYQFLLKYAKQLKGDKNKIQKLVQMAWTFVNDSLCTTLSLQWEPEIIAVAVMYLAGRLCKFEIQEWTSKPMYRRWWEQFVQDVPVDVLEDICHQILDLYSQGKQQMPHHTPHQLQQPPSLQPTPQVPQVQQSQPSQSSEPSQPQQKDPQQPAQQQQPAQQPKKPSPQPSSPRQVKRAVVVSPKEENKAAEPPPPKIPKIETTHPPLPPAHPPPDRKPPLAAALGEAEPPGPVDATDLPKVQIPPPAHPAPVHQPPPLPHRPPPPPPSSYMTGMSTTSSYMSGEGYQSLQSMMKTEGPSYGALPPAYGPPAHLPYHPHVYPPNPPPPPVPPPPASFPPPAIPPPTPGYPPPPPTYNPNFPPPPPRLPPTHAVPPHPPPGLGLPPASYPPPAVPPGGQPPVPPPIPPPGMPPVGGLGRAAWMR

What was measured:
Assay in all cases: pull-down
[1] = biological target: CDK12/Cyclin K complex, full-length (WT) CDK12 (human, UniProt Q9NYV4;O75909)
[2] = biological target: PAF1 complex (five-subunit PAF1C, WT) (human, UniProt Q6PD62;Q6P1J9;Q8WVC0;Q8N7H5;Q9GZS3)
[3] = biological target: PAF1C-YY/AA (PAF1C containing CDC73-YY/AA) (human, UniProt Q6PD62;Q6P1J9;Q8WVC0;Q8N7H5;Q9GZS3, Y290A | Y293A)

Chain of CDK12/Cyclin K complex, full-length (WT) CDK12 (Q9NYV4 whole entry, one chain of several): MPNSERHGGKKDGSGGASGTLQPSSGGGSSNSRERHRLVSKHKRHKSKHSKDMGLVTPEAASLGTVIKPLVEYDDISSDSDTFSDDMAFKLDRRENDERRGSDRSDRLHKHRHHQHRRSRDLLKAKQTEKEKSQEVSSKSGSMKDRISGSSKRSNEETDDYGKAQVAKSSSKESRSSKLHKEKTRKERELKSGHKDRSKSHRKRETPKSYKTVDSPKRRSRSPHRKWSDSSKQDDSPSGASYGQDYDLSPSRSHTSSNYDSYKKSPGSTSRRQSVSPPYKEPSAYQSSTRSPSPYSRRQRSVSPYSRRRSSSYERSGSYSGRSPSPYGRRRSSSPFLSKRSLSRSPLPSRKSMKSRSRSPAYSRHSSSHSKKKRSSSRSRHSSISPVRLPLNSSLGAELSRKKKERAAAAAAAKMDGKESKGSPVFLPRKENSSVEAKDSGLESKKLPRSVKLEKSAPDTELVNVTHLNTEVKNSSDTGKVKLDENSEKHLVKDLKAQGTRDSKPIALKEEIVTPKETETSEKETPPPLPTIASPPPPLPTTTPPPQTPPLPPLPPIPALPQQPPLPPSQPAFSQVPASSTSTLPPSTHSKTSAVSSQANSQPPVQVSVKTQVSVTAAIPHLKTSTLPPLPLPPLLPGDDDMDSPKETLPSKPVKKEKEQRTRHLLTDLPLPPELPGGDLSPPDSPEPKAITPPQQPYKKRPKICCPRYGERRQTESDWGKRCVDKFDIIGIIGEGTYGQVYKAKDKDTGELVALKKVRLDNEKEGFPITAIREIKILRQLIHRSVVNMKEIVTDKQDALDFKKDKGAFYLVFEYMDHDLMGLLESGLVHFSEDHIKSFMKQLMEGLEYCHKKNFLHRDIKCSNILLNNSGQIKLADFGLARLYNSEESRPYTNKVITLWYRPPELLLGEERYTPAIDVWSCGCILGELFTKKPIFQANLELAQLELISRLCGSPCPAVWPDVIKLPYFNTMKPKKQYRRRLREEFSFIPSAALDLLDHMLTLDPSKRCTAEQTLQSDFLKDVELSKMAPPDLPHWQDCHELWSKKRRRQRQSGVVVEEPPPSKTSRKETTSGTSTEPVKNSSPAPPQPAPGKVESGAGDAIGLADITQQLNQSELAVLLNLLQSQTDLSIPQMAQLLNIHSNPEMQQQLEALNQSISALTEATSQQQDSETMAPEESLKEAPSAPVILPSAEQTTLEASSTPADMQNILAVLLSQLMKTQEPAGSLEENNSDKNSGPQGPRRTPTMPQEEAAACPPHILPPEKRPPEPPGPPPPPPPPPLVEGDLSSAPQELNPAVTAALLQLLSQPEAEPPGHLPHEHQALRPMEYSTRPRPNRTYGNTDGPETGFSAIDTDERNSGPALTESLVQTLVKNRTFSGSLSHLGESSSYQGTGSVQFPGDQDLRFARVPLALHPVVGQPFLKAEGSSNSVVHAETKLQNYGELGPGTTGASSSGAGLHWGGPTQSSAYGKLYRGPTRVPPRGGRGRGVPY

Binder	binding result [1]	binding result [2]	binding result [3]
B1	binds		
B2		binds	binds
